The values that follow come from article PMC5983119.

Series [1] addresses TDP-43 M323K (LCDmut) M323K (mouse) (UniProt Q921F2). As to the kind of experiment: EMSA. Set-up: unit not given beside the values. To be noted: 5% acrylamide gel, protein 0.25-2 ug with 32P RNA in unspecified binding buffer, salt, pH and temperature not given. A general note: Mobility shift assays separate free from complexed probe on a gel.
The next series has as its target TDP-43 WT (mouse) (UniProt Q921F2). As to the kind of experiment: EMSA. Set-up: unit not given beside the values. To be noted: 5% acrylamide gel, protein 0.25-2 ug with 32P RNA in unspecified binding buffer, salt, pH and temperature not given.

For UGUGUGUGUGUG [(UG)6 RNA], the Kd in series [1] is 32200; with TDP-43 WT (mouse) it was 27600.
